Several values for one entry are separate records, joined by “and”; a condition that tells them apart may be missing. Equal entries are not always repeated.
Biological target: Slr0058 protein from Synechocystis sp. PCC 6803, His-tagged (Synechocystis sp. PCC 6803)
Experiment: SEC; Superose 6 Increase 10/300 GL on ÄKTAmicro; 100 mM KCl, 50 mM Tris-HCl pH 7.8, 5 mM MgCl2; 100 µl of Slr0058 at 0.313 mg/ml

stoichiometry N: 2 and 3
Substance: Slr0058 protein from Synechocystis sp. PCC 6803, His-tagged (natural protein)
